The values below are quoted from earlier work in publication PMC3791837.

The Kd is the equilibrium constant for the complex coming apart.

This data set deals with FcγRIIA (Homo sapiens) (UniProt P12318). The data set can be described thus: confocal analysis of transfected cells.
UniProt P12318, sequence (P12318 34-217): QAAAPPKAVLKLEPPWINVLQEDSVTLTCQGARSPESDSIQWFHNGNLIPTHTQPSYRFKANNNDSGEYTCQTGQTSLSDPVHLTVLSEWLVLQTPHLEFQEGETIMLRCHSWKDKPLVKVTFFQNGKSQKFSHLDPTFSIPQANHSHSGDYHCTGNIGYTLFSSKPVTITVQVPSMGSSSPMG

Turning to CRP (from UniProt P02741), the Kd is 3.7 µM.
